Experimental findings from IntAct's records for PubMed 14755250 are described below.

To fix the notation:
B1: RING finger protein 11 (Homo sapiens), Q9Y3C5 (parent)
chain: MGNCLKSPTSDDISLLHESQSDRASFGEGTEPDQEPPPPYQEQVPVPVYHPTPSQTRLATQLTEEEQIRIAQRIGLIQHLPKGVYDPGRDGSEKKIRECVICMMDFVYGDPIRFLPCMHIYHLDCIDDWLMRSFTCPSCMEPVDAALLSSYETN
partner: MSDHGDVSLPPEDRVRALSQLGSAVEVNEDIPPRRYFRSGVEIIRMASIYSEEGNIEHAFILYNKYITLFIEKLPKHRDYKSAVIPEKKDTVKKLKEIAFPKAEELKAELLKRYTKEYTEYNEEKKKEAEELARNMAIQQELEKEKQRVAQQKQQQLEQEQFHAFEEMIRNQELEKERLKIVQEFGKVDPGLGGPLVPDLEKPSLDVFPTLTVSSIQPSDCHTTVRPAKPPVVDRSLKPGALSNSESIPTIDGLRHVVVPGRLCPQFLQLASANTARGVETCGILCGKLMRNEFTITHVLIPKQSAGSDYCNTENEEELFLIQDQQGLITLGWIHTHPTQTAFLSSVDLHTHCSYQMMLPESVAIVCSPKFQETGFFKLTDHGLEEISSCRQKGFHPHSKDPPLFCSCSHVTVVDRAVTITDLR

In the assay the parent is B1. To be noted: with stabp_human STAMBP.
MGNCLKSPTSDDISLLHESQSDRASFGEGTEPDQEPPPPYQEQVPVPVYHPTPSQTRLATQLTEEEQIRIAQRIGLIQHLPKGVYDPGRDGSEKKIREAVICMMDFVYGDPIRFLPCMHIYHLDCIDDWLMRSFTCPSCMEPVDAALLSSYETN [C99A]: the “effect of a mutation on the interaction” value is given as “decreasing interaction”.
